{"source": "patent US20150045310A1", "about": "(TRUSTEES OF PRINCETON UNIVERSITY, published 2015)", "binders": {"B1": {"name": "stapled M2-4 peptide (peptide)", "peptide": "WLAQLLR[S5]IGD[S5]IN-NH2", "modifications": "staple 8-12; N-terminus assumed", "SMILES": "CC[C@H](C)[C@@H]1NC(=O)[C@@](C)(NC(=O)[C@H](CCCNC(=N)N)NC(=O)[C@H](CC(C)C)NC(=O)[C@H](CC(C)C)NC(=O)[C@H](CCC(N)=O)NC(=O)[C@H](C)NC(=O)[C@H](CC(C)C)NC(=O)[C@@H](N)Cc2c[nH]c3ccccc23)CCCC=CCCC[C@@](C)(C(=O)N[C@H](C(=O)N[C@@H](CC(N)=O)C(N)=O)[C@@H](C)CC)NC(=O)[C@H](CC(=O)O)NC(=O)CNC1=O"}, "B2": {"name": "stapled M2-2 peptide (peptide)", "peptide": "WVAQLLR[S5]IGD[S5]VN-NH2", "modifications": "staple 8-12; N-terminus assumed", "SMILES": "CC[C@H](C)[C@@H]1NC(=O)[C@@](C)(NC(=O)[C@H](CCCNC(=N)N)NC(=O)[C@H](CC(C)C)NC(=O)[C@H](CC(C)C)NC(=O)[C@H](CCC(N)=O)NC(=O)[C@H](C)NC(=O)[C@@H](NC(=O)[C@@H](N)Cc2c[nH]c3ccccc23)C(C)C)CCCC=CCCC[C@@](C)(C(=O)N[C@H](C(=O)N[C@@H](CC(N)=O)C(N)=O)C(C)C)NC(=O)[C@H](CC(=O)O)NC(=O)CNC1=O"}, "B3": {"name": "Bim BH3 14-mer E151Q (pseudo-wild-type) displayed on eCPX (peptide)", "peptide": "WIAQQLRRIGDEFN", "modifications": "not fully specified", "notes": "also called pseudo-wild-type Bim; Bim E151Q; not shown: eCPX display scaffold and the linker to it"}, "B4": {"name": "Bim BH3 14-mer variant X2-3 displayed on eCPX (peptide)", "peptide": "WVAQWLRRWGDEFN", "modifications": "also: displayed as fusion to eCPX scaffold (letters not given here)", "notes": "Clone selected against Bcl-xL; not shown: eCPX display scaffold and the linker to it"}, "B5": {"name": "Bim BH3 14-mer E151I displayed on eCPX (peptide)", "peptide": "WIAQILRRIGDEFN", "notes": "also called E1511; Bim E151I; not shown: eCPX display scaffold and the linker to it"}, "B6": {"name": "Bim BH3 14-mer E151L displayed on eCPX (peptide)", "peptide": "WIAQLLRRIGDEFN", "notes": "also called Bim E151L; pSZ55; not shown: eCPX display scaffold and the linker to it"}, "B7": {"name": "Bim BH3 14-mer variant M2-2 displayed on eCPX (peptide)", "peptide": "WVAQLLRRIGDEVN-{linker-eCPX}", "modifications": "reading uncertain; also: printed as Trp-Val-Ala-Gln-Leu-Leu-Arg-Arg-Ile-Gly-Asp-Glu-Val-Asn", "notes": "Clone selected against Mcl-1; not shown: eCPX display scaffold and its linker, fused C-terminal to the peptide"}, "B8": {"name": "Bim BH3 14-mer variant X2-8 displayed on eCPX (peptide)", "peptide": "WLAQLLRRYGDEFN", "modifications": "also: displayed as fusion to eCPX scaffold (letters not given here)", "notes": "as for B4"}, "B9": {"name": "wild-type Bim BH3 14-mer peptide (residues 147-160) displayed on eCPX (peptide)", "peptide": "WIAQELRRIGDEFN-{linker-eCPX}", "modifications": "reading uncertain", "notes": "also called WT; Bim WT; not shown: eCPX (enhanced circularly permuted OmpX) display scaffold and its linker, fused C-terminal to the peptide"}, "B10": {"name": "Bim BH3 14-mer variant X2-10 displayed on eCPX (peptide)", "peptide": "WVAQTLRRWGDEFN-{linker-eCPX}", "modifications": "reading uncertain; also: printed as Trp-Val-Ala-Gln-Thr-Leu-Arg-Arg-Trp-Gly-Asp-Glu-Phe-Asn", "notes": "Clone selected against Bcl-xL; not shown: eCPX display scaffold and its linker, fused C-terminal to the peptide"}, "B11": {"name": "Bim BH3 14-mer variant M2-4 displayed on eCPX (peptide)", "peptide": "WLAQLLRRIGDEIN-{linker-eCPX}", "modifications": "reading uncertain; also: printed as Trp-Leu-Ala-Gln-Leu-Leu-Arg-Arg-Ile-Gly-Asp-Glu-Ile-Asn", "notes": "as for B7"}, "B12": {"name": "Bim BH3 14-mer variant M2-3 displayed on eCPX (peptide)", "peptide": "WMAQILRRIGDEVN-{linker-eCPX}", "modifications": "reading uncertain; also: printed as Trp-Met-Ala-Gln-Ile-Leu-Arg-Arg-Ile-Gly-Asp-Glu-Val-Asn", "notes": "as for B7"}, "B13": {"name": "Bim BH3 14-mer variant M2-1 displayed on eCPX (peptide)", "peptide": "WIAQLLRRIGDEVN-{linker-eCPX}", "modifications": "reading uncertain; also: printed as Trp-Ile-Ala-Gln-Leu-Leu-Arg-Arg-Ile-Gly-Asp-Glu-Val-Asn", "notes": "as for B7"}}, "note": "Bridges are numbered along the chain shown (N, C = ends). Where no end group is shown, it is not given here. [ ]: non-standard residue; d: D form. eCPX = enhanced circularly permuted OmpX display scaffold; S5 = C=CCCC[C@](C)(N)C(=O)O; linker = not defined here", "data": [{"biological_target": "T1, Mcl-1 (biotinylated pro-survival Bcl-2 family protein) (UniProt Q07820 171-327, limits assumed, biotinylated (co-expressed E. coli biotin ligase BirA))", "T1 sequence (Q07820 171-327 limits assumed)": "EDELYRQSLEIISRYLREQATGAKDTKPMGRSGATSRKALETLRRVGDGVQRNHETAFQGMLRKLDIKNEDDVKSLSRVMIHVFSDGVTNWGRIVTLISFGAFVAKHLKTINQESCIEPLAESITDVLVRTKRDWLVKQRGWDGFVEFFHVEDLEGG", "assay": "cell-based or functional assay", "units": {"IC50 (µM), cytotoxicity, HeLa cells": "µM", "IC50 (µM), cytotoxicity, MCF7 cells": "µM", "IC50 (µM), cytotoxicity, MDA231 cells": "µM", "IC50 (µM), cytotoxicity, PC3 cells": "µM"}, "values": [{"binder": "B1", "IC50 (µM), cytotoxicity, HeLa cells": 1.04, "IC50 (µM), cytotoxicity, MCF7 cells": 5.72, "IC50 (µM), cytotoxicity, MDA231 cells": 4.39, "IC50 (µM), cytotoxicity, PC3 cells": 1.36}]}, {"biological_target": "T1, Mcl-1 (biotinylated pro-survival Bcl-2 …)", "assay": "cell-based or functional assay", "remark": "another data set of the same source", "units": {"IC50 (µM), MTT cytotoxicity assay, HeLa cells": "µM"}, "values": [{"binder": "B2", "IC50 (µM), MTT cytotoxicity assay, HeLa cells": 6.1}, {"binder": "B1", "IC50 (µM), MTT cytotoxicity assay, HeLa cells": 1}]}, {"biological_target": "T1, Mcl-1 (biotinylated pro-survival Bcl-2 …)", "assay": "cell-based or functional assay", "remark": "another data set of the same source", "units": {"IC50 (µM), MTT cytotoxicity assay, PC3 cells": "µM"}, "values": [{"binder": "B2", "IC50 (µM), MTT cytotoxicity assay, PC3 cells": 4.7}, {"binder": "B1", "IC50 (µM), MTT cytotoxicity assay, PC3 cells": 1.4}]}, {"biological_target": "T1, Mcl-1 (biotinylated pro-survival Bcl-2 …)", "assay": "cell-based or functional assay", "remark": "another data set of the same source", "units": {"IC50 (µM), MTT cytotoxicity assay, MCF7 cells": "µM"}, "values": [{"binder": "B2", "IC50 (µM), MTT cytotoxicity assay, MCF7 cells": 5.7}, {"binder": "B1", "IC50 (µM), MTT cytotoxicity assay, MCF7 cells": 5.7}]}, {"biological_target": "T1, Mcl-1 (biotinylated pro-survival Bcl-2 …)", "assay": "cell-based or functional assay", "remark": "another data set of the same source", "units": {"IC50 (µM), MTT cytotoxicity assay, MDA231 cells": "µM"}, "values": [{"binder": "B2", "IC50 (µM), MTT cytotoxicity assay, MDA231 cells": 3.7}, {"binder": "B1", "IC50 (µM), MTT cytotoxicity assay, MDA231 cells": 4.4}]}, {"biological_target": "T2, Bcl-xL (biotinylated pro-survival Bcl-2 family protein) (UniProt Q07817 1-209, biotinylated (co-expressed E. coli biotin ligase BirA))", "T2 sequence (Q07817 1-209)": "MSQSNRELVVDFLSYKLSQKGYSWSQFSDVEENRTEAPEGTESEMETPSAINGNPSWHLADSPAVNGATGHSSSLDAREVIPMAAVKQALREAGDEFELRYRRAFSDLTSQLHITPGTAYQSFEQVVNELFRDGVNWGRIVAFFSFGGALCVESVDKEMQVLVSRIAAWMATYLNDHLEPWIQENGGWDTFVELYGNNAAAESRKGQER", "assay": "apparent Kd, bacterial surface display and flow cytometry", "procedure": "(§1) All binding assays were performed using MC1061 strain. Briefly, a 5 mL culture of a library sample or individual variant was grown to OD₆₀₀˜0.6, and induced with arabinose (0.2%) at RT for 2.5 hours. Cells were pelleted (1 mL culture, 6000 rpm, 5 min) and resuspended in 1 mL PBS. A portion of the cell suspension (50 μL) was mixed with the desired concentration of pro-survival protein to a total volume of 500 μL. The mixture was allowed to rotate at room temperature for 1 hour for equilibrium binding. The cells were pelleted again (6000 rpm, 20 min), resuspended with 100 μL of 50 nM streptavidin-phycoerythrin (SAPE), and incubated on ice in the dark for 30 min. After a final centrifugation, the cell pellets were stored on ice and resuspended in 2 mL of PBS for flow cytometry measurements. A Partec CyFlow ML Flow Cytometer equipped with a 488 nm laser was used to analyze the cells. A FACSVantage SE cell sorter was used for cell sorting in single cell mode.\n(§2) A two parameter model was used to extract apparent binding affinity (Kd) from flow cytometry binding experiments.", "units": {"fold increase in apparent affinity against wild-type Bim 14-mer": "fold"}, "values": [{"binder": "B3", "fold increase in apparent affinity against wild-type Bim 14-mer": 5}, {"binder": "B4", "fold increase in apparent affinity against wild-type Bim 14-mer": 25}]}, {"biological_target": "T1, Mcl-1 (biotinylated pro-survival Bcl-2 …)", "assay": "apparent Kd, bacterial surface display and flow cytometry", "procedure": "as §1, §2", "units": {"fold increase in apparent affinity against wild-type Bim 14-mer": "fold"}, "values": [{"binder": "B5", "fold increase in apparent affinity against wild-type Bim 14-mer": 2}, {"binder": "B6", "fold increase in apparent affinity against wild-type Bim 14-mer": 2}, {"binder": "B7", "fold increase in apparent affinity against wild-type Bim 14-mer": 6}]}, {"biological_target": "T2, Bcl-xL (biotinylated pro-survival Bcl-2 …)", "assay": "flow cytometry of E. coli displaying the peptide on eCPX, biotinylated target + streptavidin-PE; apparent Kd", "procedure": "as §1, §2", "units": {"Kd": "µM"}, "values": [{"binder": "B8", "Kd": 0.0178}, {"binder": "B9", "Kd": 0.251}, {"binder": "B4", "Kd": 0.00928}, {"binder": "B10", "Kd": 0.017}]}, {"biological_target": "T1, Mcl-1 (biotinylated pro-survival Bcl-2 …)", "assay": "flow cytometry of E. coli displaying the peptide on eCPX, biotinylated target + streptavidin-PE; apparent Kd", "procedure": "as §1, §2", "units": {"Kd": "µM"}, "values": [{"binder": "B11", "Kd": 0.00985}, {"binder": "B12", "Kd": 0.0115}, {"binder": "B9", "Kd": 0.0377}, {"binder": "B7", "Kd": 0.0058}, {"binder": "B13", "Kd": 0.0103}]}, {"biological_target": "T2, Bcl-xL (biotinylated pro-survival Bcl-2 …)", "assay": "flow cytometry of E. coli displaying the peptide on eCPX, biotinylated target + streptavidin-PE; apparent Kd", "remark": "another data set of the same source", "procedure": "as §1, §2", "units": {"Kd": "µM"}, "values": [{"binder": "B11", "Kd": 0.333}, {"binder": "B8", "Kd": 0.0178}, {"binder": "B9", "Kd": 0.251}, {"binder": "B3", "Kd": 0.0474}, {"binder": "B7", "Kd": 2.8}, {"binder": "B4", "Kd": 0.00928}]}, {"biological_target": "Bcl-2 (biotinylated pro-survival Bcl-2 family protein) (UniProt P10415 1-217, limits assumed, biotinylated (co-expressed E. coli biotin ligase BirA))", "sequence (P10415 1-217 limits assumed)": "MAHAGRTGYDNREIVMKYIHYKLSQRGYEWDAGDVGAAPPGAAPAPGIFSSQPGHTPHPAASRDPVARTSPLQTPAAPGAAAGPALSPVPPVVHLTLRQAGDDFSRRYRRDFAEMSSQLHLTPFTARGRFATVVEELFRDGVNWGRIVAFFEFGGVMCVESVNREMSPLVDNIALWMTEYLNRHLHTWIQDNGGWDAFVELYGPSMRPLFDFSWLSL", "assay": "flow cytometry of E. coli displaying the peptide on eCPX, biotinylated target + streptavidin-PE; apparent Kd", "procedure": "as §1, §2", "units": {"Kd": "µM"}, "values": [{"binder": "B11", "Kd": 0.0937}, {"binder": "B8", "Kd": 2.35}, {"binder": "B9", "Kd": 0.0979}, {"binder": "B3", "Kd": 0.175}, {"binder": "B4", "Kd": 0.929}]}, {"biological_target": "T3, Bcl-w (biotinylated pro-survival Bcl-2 family protein) (UniProt Q92843 1-164, limits assumed, biotinylated (co-expressed E. coli biotin ligase BirA))", "T3 sequence (looked up)": "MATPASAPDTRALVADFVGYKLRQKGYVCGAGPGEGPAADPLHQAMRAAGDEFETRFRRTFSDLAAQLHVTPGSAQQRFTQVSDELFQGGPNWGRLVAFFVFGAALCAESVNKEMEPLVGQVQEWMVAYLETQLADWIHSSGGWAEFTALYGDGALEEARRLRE", "assay": "flow cytometry of E. coli displaying the peptide on eCPX, biotinylated target + streptavidin-PE; apparent Kd", "procedure": "as §1, §2", "units": {"Kd": "µM"}, "values": [{"binder": "B11", "Kd": 0.542}, {"binder": "B8", "Kd": 0.946}, {"binder": "B9", "Kd": 0.594}, {"binder": "B3", "Kd": 0.642}, {"binder": "B4", "Kd": 5.89}]}, {"biological_target": "T1, Mcl-1 (biotinylated pro-survival Bcl-2 …)", "assay": "flow cytometry of E. coli displaying the peptide on eCPX, biotinylated target + streptavidin-PE; apparent Kd", "remark": "another data set of the same source", "procedure": "as §1, §2", "units": {"Kd": "µM"}, "values": [{"binder": "B11", "Kd": 0.00985}, {"binder": "B8", "Kd": 2.58}, {"binder": "B9", "Kd": 0.0377}, {"binder": "B3", "Kd": 0.0452}, {"binder": "B7", "Kd": 0.0058}, {"binder": "B4", "Kd": 1.3}]}]}
